Experimental data as given in patent US20150239980A1 (NEOTOPE BOSCIENCES, published 2015).
Numbering of substitutions follows the chain as printed. Blank lines part the entries; values can stand above or below the binder they belong to.

Assays:
[1] = molecular target: T1, murine MCAM-Fc fusion protein (mouse, UniProt Q8R2Y2 24-563); experiment: ForteBio Octet Red, anti-human IgG Fc (AHC) biosensors loaded with mouse MCAM-hFc proteins (5 ug/ml), dipped into antibody (5 ug/ml) or SP2 media
T1 construct: extracellular domain; produced in CHO cells; also called mouse MCAM-Fc; mouse MCAMhFc; not shown: fused to human IgG
T1 sequence (looked up): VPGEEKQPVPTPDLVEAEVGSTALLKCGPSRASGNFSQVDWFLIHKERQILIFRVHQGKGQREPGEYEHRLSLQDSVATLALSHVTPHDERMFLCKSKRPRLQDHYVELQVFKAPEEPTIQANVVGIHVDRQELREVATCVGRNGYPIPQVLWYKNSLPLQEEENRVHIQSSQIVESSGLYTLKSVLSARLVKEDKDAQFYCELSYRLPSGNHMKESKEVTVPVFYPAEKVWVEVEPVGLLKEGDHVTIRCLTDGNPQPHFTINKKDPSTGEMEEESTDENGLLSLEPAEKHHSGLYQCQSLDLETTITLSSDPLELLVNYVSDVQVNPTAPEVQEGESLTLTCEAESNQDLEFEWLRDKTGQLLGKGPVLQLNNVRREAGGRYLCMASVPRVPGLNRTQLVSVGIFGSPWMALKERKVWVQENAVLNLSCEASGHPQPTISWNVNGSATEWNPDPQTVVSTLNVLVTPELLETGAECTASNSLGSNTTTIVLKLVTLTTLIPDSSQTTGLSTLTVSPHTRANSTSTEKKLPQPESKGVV
Text: (§1) The following protocol was used: ForteBio Domain Mapping Protocol. ForteBio anti-human IgG Fc biosensors were used to immobilize various mouse MCAMhFc domains including full length mouse MCAMhFc protein on to biosensor surface. These sensors were dipped into either clone 15 or 17 MCAM specific antibody for detection of binding to these domains or full length protein. After loading these samples into a black 96 well plate, the Octet Red was programmed as follows: 60 seconds for baseline #1; 180 seconds for loading various domains; 60 seconds for baseline #2; 180 seconds for association of antibody to domain; and 240 seconds for dissociation of antibody from domain.
(§2) 1. Mouse MCAMhFc final concentration @ 5 ug/ml [0466] 2. Antibody clone 15 or 17 @ 5 ug/ml [0467] 3. ForteBio anti-human IgG Fc Capture (AHC) biosensors for kinetics experiments, cat#18-5060 [0468] 4. […] 5. ForteBio Octet Red machine [0470] 6. Fresh tissue culture medium, DMEM with 20% FCS, was used as buffer for dilution
(§3) For FIGS. 10A-B, clones 15 and 17 were tested against the following protein samples (all have human IgG Fc tag): Murine MCAM; Human Fc full length protein; Murine MCAM domain 1 (Ig1); Murine MCAM domain 2 (Ig2); and Murine MCAM domain 1 and 2 (Ig1-2A).

Ig2 domain = molecular target: T2, Ig2 domain (mouse, UniProt Q8R2Y2); experiment: as above
T2 construct: isolated domain 2; also called Murine MCAM domain 2 (Ig2) with human IgG Fc tag
T2 sequence (Fc fusion chain, looked up): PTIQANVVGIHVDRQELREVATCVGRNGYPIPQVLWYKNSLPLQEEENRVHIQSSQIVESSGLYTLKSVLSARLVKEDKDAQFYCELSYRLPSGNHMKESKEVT
Text: as §1, §2, §3

[2] = molecular target: T3, mouse MCAM expressed on transfected CHO cells (mouse, UniProt Q8R2Y2 24-648); experiment: flow cytometry, mouse MCAM transfected cells mixed with CFSE-labelled untransfected cells
T3 construct: whole, on cells; also called murine MCAM
T3 sequence (looked up): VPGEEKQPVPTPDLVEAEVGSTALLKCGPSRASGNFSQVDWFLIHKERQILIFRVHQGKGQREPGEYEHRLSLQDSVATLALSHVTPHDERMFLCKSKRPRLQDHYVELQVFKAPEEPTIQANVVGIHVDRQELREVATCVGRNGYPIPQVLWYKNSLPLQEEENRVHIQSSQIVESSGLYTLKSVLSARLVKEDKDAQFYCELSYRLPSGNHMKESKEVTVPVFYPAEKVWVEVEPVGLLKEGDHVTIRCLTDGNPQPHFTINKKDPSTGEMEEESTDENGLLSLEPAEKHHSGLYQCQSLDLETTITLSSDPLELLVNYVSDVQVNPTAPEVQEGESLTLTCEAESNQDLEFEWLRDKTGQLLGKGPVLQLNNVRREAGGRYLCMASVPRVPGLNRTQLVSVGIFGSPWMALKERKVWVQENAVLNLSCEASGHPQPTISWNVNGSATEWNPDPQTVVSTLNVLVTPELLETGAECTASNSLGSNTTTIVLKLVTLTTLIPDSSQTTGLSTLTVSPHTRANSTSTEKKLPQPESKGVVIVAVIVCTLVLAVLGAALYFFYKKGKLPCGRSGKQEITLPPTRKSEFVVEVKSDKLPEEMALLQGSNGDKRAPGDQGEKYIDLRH
Description: For the generation of antibodies capable of binding to murine MCAM, MCAM-Fc was generated by fusing the extracellular domain of murine MCAM to human IgG and produced in CHO cells using standard techniques. Lou/M rats were immunized with 100 μg of MCAM-Fc protein in CFA (1:1 volume). Rats were boosted two times at two week intervals with MCAM-Fc protein in incomplete Freund's adjuvant (IFA) (1:1 volume). Hybridomas were generated from immunized rats using standard protocols and clones were selected by Clonepix. CHO cells were transfected with the full length murine MCAM gene and selected for stable expression using neomycin and standard techniques. Parental CHO cells (MCAM negative) were fluorescently labeled with carboxyfluorescein succinimidyl ester (CFSE) using standard techniques and mixed at a 1:1 ratio with unlabeled MCAM transfected CHO cells. Hybridoma supernatants were incubated with this mixture of cells for 30 minutes and binding of potential MCAM specific antibodies was detected with a fluorescently labeled anti-rat secondary antibody (Jackson Immuno) by flow cytometry.

recombinant hMCAM-His [3] = molecular target: T4, recombinant hMCAM-His (human, UniProt P43121 24-559); experiment: ForteBio Octet Red, hMCAM-His analyte; Forte column 1; vs rodent 2120
T4 construct: not shown: His tag
T4 chain: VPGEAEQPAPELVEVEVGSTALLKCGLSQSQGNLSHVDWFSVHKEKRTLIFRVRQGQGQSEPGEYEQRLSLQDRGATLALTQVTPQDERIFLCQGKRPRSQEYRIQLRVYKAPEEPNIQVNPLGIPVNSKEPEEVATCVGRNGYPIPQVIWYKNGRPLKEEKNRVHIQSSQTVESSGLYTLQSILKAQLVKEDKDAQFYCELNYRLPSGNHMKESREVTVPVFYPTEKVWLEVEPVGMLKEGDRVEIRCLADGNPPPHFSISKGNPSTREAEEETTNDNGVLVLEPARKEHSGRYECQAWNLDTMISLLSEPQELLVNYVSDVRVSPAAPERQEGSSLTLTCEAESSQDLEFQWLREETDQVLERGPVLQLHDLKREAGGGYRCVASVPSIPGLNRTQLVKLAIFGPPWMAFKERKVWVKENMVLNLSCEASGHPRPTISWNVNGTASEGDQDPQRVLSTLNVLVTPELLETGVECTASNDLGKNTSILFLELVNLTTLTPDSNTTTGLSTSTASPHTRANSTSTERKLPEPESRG
Description: (§4) The affinities were measured using the ForteBio Octet Red. Anti-human Fc sensors were used to capture the humanized antibodies, and several concentrations of hMCAMHis analyte were used to determine the affinity using a 1:1 fitting model.

recombinant hMCAM-His [4] = molecular target: T4, recombinant hMCAM-His; experiment: competitive ELISA on hMCAM-His, competitor biotinylated rodent or chimeric 2120; Expt. #1; vs rodent 2120
Description: (§5) ELISA plates were coated with recombinant hMCAM-His, and blocked with casein buffer to prevent non-specific binding. Biotinylated rodent or chimeric antibody was added at a subsaturating concentration, in the presence or absence of 3× increasing concentrations of unlabeled competitor (humanized antibody, rodent, or chimeric). After washing to remove unbound antibody, streptavidin HRP was added to allow detection of the biotinylated antibody. The ELISA was developed with TMB substrate and the OD450 was measured. The IC50 of the unlabeled competitor was determined using the GraphPad Prism5 software.

recombinant hMCAM-His [5] = molecular target: T4, recombinant hMCAM-His; experiment: summary of ForteBio, hMCAM-His; vs rodent 2120
Description: as §4

recombinant hMCAM-His [6] = molecular target: T4, recombinant hMCAM-His; experiment: ForteBio Octet Red, hMCAM-His analyte; Expt. #2; vs rodent 2120
Description: as §4

recombinant hMCAM-His [7] = molecular target: T4, recombinant hMCAM-His; experiment: ForteBio Octet Red, hMCAM-His analyte; Expt. #1; vs rodent 2120
Description: as §4

[8] = molecular target: T5, human MCAM (melanoma cell adhesion molecule) expressed on transfected CHO cells (human, UniProt P43121 24-646); experiment: laminin/FACS on hMCAM CHO cells, competitor laminin 411; Expt#1; vs rodent 2120
T5 construct: also called hMCAM; CD146
T5 chain: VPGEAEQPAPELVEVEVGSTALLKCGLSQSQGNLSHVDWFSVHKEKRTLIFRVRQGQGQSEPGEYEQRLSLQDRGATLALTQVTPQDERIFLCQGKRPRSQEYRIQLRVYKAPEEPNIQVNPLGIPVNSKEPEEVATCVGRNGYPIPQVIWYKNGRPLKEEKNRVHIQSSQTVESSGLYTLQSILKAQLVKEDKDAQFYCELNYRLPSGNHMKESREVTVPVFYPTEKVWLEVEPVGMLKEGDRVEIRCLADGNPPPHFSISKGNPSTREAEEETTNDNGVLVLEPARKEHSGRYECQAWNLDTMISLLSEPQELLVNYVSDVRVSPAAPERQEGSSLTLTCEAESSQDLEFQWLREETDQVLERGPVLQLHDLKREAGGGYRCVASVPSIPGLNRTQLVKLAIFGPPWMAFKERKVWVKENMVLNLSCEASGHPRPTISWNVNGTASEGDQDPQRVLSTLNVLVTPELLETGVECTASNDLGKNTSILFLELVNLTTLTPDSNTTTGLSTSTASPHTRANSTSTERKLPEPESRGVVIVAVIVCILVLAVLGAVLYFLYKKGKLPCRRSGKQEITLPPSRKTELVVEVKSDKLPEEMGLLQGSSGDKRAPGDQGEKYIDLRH
Description: (§6) Following incubation for 30-45 minutes, the cells were washed and anti-laminin conjugated to AF650 (NovusBio) was added to detect the bound laminin. The cells were run on a flow cytometer to measure the laminin binding signal.

recombinant hMCAM-His [9] = molecular target: T4, recombinant hMCAM-His; experiment: competitive ELISA on hMCAM-His, competitor biotinylated rodent or chimeric 2120; vs rodent 2120
Description: as §5

[10] = molecular target: T5, human MCAM (melanoma cell adhesion …); experiment: laminin/FACS on hMCAM CHO cells, competitor laminin 411; Expt#2; vs rodent 2120
Description: as §6

recombinant hMCAM-His [11] = molecular target: T4, recombinant hMCAM-His; experiment: competitive ELISA on hMCAM-His, competitor biotinylated rodent or chimeric 2120; Expt. #2; vs rodent 2120
Description: as §5

recombinant hMCAM-His [12] = molecular target: T4, recombinant hMCAM-His; experiment: ForteBio Octet Red, hMCAM-His analyte; Forte column 2; vs rodent 2120
Description: as §4

binding result [1]: binds
binding result (Ig2 domain): no binding (tested: 5 ug/ml)
binding result [2]: binds
B1: anti-MCAM monoclonal antibody clone 17 (antibody, V domains shown)
VH: EVQLVESGGGLVQPGRSLKLSCAASGFTFSNYYMAWVRQAPTKGLEWVASISFEGNRNHYGDSVKGRITISRDNAKSTLYLQMTSLRPEDTATYYCARHRGYSTNFYHDVLDAWGQGALVTVSS
VL: DVQMTQSPSYLATSPGESVSISCKASKNIDTYLAWYQEKPGKTNKLLIYSGSTLQSGTPSRFSGSGSGTDFTLTIRNLESEDFAVYYCQQHNEYPLTFGSGTKLEIKR
notes: rat monoclonal raised against murine MCAM-Fc; also called anti-MCAM clone 17

fold over rodent (Forte affinity) (recombinant hMCAM-His [3]): 5.9 fold
fold over rodent (competitive ELISA) (recombinant hMCAM-His [4]): 2.23 fold
fold reduction in affinity as measured by ForteBio (recombinant hMCAM-His [5]): > 5 fold
fold over rodent (Forte affinity) (recombinant hMCAM-His [6]): 6.21 fold
fold over rodent (Forte affinity) (recombinant hMCAM-His [7]): 5.64 fold
fold over rodent (blocking, laminin/FACS) [8]: 1.7 fold
fold over rodent (competitive ELISA) (recombinant hMCAM-His [9]): 1.8 fold
fold over rodent (blocking, laminin/FACS) [10]: 2.8 fold
fold over rodent (competitive ELISA) (recombinant hMCAM-His [11]): 2.42 fold
fold over rodent (Forte affinity) (recombinant hMCAM-His [12]): 5.8 fold
B2: h2120_VH1 + h2120_VL3 (antibody, human IgG1, V domains shown)
VH: QVTLKESGPVLVKPTETLTLTCTVSGFSLTSNGVSWVRQPPGKALEWIAAISSGGTTYYNSAFKSRLTISRDTSKSQVVLTMTNMDPVDTATYYCARRYGYGWYFDFWGQGTLVTVSS
VL: DIQMTQSPSSLSASVGDRVTINCKASQNIYNSLAWYQQKPGKAPKVLIFNANSLQTGIPSRFSGSGSGTDFTLTISSLQPEDFATYYCQQFYSGYTFGQGTKLEIK

fold over rodent (competitive ELISA) (recombinant hMCAM-His [4]): 1.93 fold
fold reduction in affinity as measured by ForteBio (recombinant hMCAM-His [5]): > 5 fold
fold over rodent (Forte affinity) (recombinant hMCAM-His [6]): 6.43 fold
fold over rodent (Forte affinity) (recombinant hMCAM-His [7]): 6.57 fold
fold over rodent (competitive ELISA) (recombinant hMCAM-His [11]): 2.62 fold
B3: h2120_VH2 + h2120_VL3 (antibody, human IgG1, V domains shown)
VH: B2 VH with T68S
VL: B2 VL
